Assay results as given in patent US20260167959A1, “APTAZYME-BASED REGULATABLE GENE EXPRESSION SYSTEMS” (REJUVENATE BIO INC, priority 2022, published 2026).

Tested on: Renilla luciferase RNA
Assay: Barcoded aptazyme variant library screen: un-cleaved Renilla luciferase RNA by barcode read counts, HEK293-T cells
Format: cell-based
Details: triplicate
In short: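 Barcode sequencing of cDNA versus DNA, normalized per aptazyme, gave the un-cleaved Renilla luciferase RNA fraction and fold-change with versus without theophylline (triplicates). Library: T3H48 ribozyme with one of seven theophylline aptamer variants inserted at each position, placed in the Renilla 3′ UTR of a dual-luciferase vector.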

[1] = un-cleaved Renilla luciferase RNA by barcode read counts, with 1 mM theophylline (ON) over without theophylline (OFF), HEK293-T cells
[2] = un-cleaved Renilla luciferase RNA, HEK293-T cells cultured with 1 mM theophylline (ON) over without theophylline (OFF), barcode read counts

Molecule | Fold change in RNA expression between the ON state and the OFF state [1] | Fold change in RNA expression between the ON state and the OFF state [2]
RA378 (nucleic acid, expressed or natural sequence) DNA: GCGCGTCCTGGATTCGCGGAAACGCGTACATCCCGGAATACCAGCATCGTCTTGATGCCCTTGGAAGTCCGGCAGCTGACGAGTCCCAAATAGGACGAAACGCGC | 0.8 | –
RA377 (nucleic acid, expressed or natural sequence) DNA: GCGCGTCCTGGATTCGCGGAAACGCGTACATCCAGCTGACGAGTCCCAAATAGGACGGAGAATACCAGCATCGTCTTGATGCCCTTGGAAGTCTCAAACGCGC | 0.8 | –
RA381 (nucleic acid, expressed or natural sequence) DNA: GCGCGTCCTGGATTCGCGGAAACGCGTACATCCAGCTGACGAGTCCCAAATAGGACGAAACGCGCCCGGAATACCAGCATCGTCTTGATGCCCTTGGAAGTCCGG | 0.8 | –
RA369 (nucleic acid, expressed or natural sequence) DNA: GCGCGTCCTGGATTCGGAATACCAGCATCGTCTTGATGCCCTTGGAAGTCCGCGCGGAAACGCGTACATCCAGCTGACGAGTCCCAAATAGGACGAAACGCGC | 0.8 | –
RA374 (nucleic acid, expressed or natural sequence) DNA: GCGCGTCCTGGATTCGCGGAAACGCGTACATCCAGCTGCCGGAATACCAGCATCGTCTTGATGCCCTTGGAAGTCCGGACGAGTCCCAAATAGGACGAAACGCGC | 0.8 | –
RA375 (nucleic acid, expressed or natural sequence) DNA: GCGCGTCCTGGATTCGCGGAAACGCGTACATCCAGCTCCGGAATACCAGCATCGTCTTGATGCCCTTGGAAGTCCGGGACGAGTCCCAAATAGGACGAAACGCGC | 0.8 | –
RA386 (nucleic acid, expressed or natural sequence) DNA: GCGCGTCCTGGATTCGCGGAAACGCGTACATCCAGCTGACGGGAATACCAGCATCGTCTTGATGCCCTTGGAAGTCCAGTCCCAAATAGGACGAAACGCGC | 0.8 | –
RA371 (nucleic acid, expressed or natural sequence) DNA: GCGCGTCCTGGATTCGCGGAAACGCGTACATCCAGCTGACGAGTCCCAAAAGAATACCAGCATCGTCTTGATGCCCTTGGAAGTCTTAGGACGAAACGCGC | 0.8 | –
RA383 (nucleic acid, expressed or natural sequence) DNA: CGGAATACCAGCATCGTCTTGATGCCCTTGGAAGTCCGGCGCGTCCTGGATTCGCGGAAACGCGTACATCCAGCTGACGAGTCCCAAATAGGACGAAACGCGC | 0.8 | –
RA373 (nucleic acid, expressed or natural sequence) DNA: GCGCGTCCTGGATTCGCGGAAACGCGTACATCCAGCTGACGAGTCCCAAGTGATACCAGCATCGTCTTGATGCCCTTGGCAGCACTAATAGGACGAAACGCGC | 0.8 | –
RA389 (nucleic acid, expressed or natural sequence) DNA: GCGCGTCCTGGATTCGCGGAAACGCGTACCGGAATACCAGCATCGTCTTGATGCCCTTGGAAGTCCGATCCAGCTGACGAGTCCCAAATAGGACGAAACGCGC | 0.8 | –
RA387 (nucleic acid, expressed or natural sequence) DNA: GCGCGTCCTGGATTCGCGGAAACGCGCCGGAATACCAGCATCGTCTTGATGCCCTTGGAAGTCCGGTACATCCAGCTGACGAGTCCCAAATAGGACGAAACGCGC | 0.8 | –
RA367 (nucleic acid, expressed or natural sequence) DNA: GCGCGTCCTGGATGGAATACCAGCATCGTCTTGATGCCCTTGGAAGTCCTCGCGGAAACGCGTACATCCAGCTGACGAGTCCCAAATAGGACGAAACGCGC | 0.8 | –
RA380 (nucleic acid, expressed or natural sequence) DNA: GCGCGTCCTGGATTCGCGGAAACGCCGAGAATACCAGCATCGTCTTGATGCCCTTGGAAGTCTCGGTACATCCAGCTGACGAGTCCCAAATAGGACGAAACGCGC | 0.8 | –
RA379 (nucleic acid, expressed or natural sequence) DNA: GCGCGTCCTGGATTCGCGGAAACGCGGAATACCAGCATCGTCTTGATGCCCTTGGAAGTCCGTACATCCAGCTGACGAGTCCCAAATAGGACGAAACGCGC | 0.8 | –
RA385 (nucleic acid, expressed or natural sequence) DNA: GCGCGTCCTGGATCCGGAATACCAGCATCGTCTTGATGCCCTTGGAAGTCCGGTCGCGGAAACGCGTACATCCAGCTGACGAGTCCCAAATAGGACGAAACGCGC | 0.8 | –
RA376 (nucleic acid, expressed or natural sequence) DNA: GCGCGTCCTGGATTCGCGGAAACGCGTACATCCAGCTGAAGAATACCAGCATCGTCTTGATGCCCTTGGAAGTCTCGAGTCCCAAATAGGACGAAACGCGC | 0.8 | –
RA366 (nucleic acid, expressed or natural sequence) DNA: GCGCGTCCTGGATTCGCGGAAGAGAATACCAGCATCGTCTTGATGCCCTTGGAAGTCTCACGCGTACATCCAGCTGACGAGTCCCAAATAGGACGAAACGCGC | 0.8 | –
RA038 (nucleic acid, expressed or natural sequence) DNA: GCGCGTCCTGGATTCGCGGAAACGCGTACATCAGAATACCAGCATCGTCTTGATGCCCTTGGAAGTCTCAGCTGACGAGTCCCAAATAGGACGAAACGCGC | – | 2.2 fold
RA370 (nucleic acid, expressed or natural sequence) DNA: GCGCGTCCTGGATTCGCGGAAACGCGTACATCCAGCTGACGAGTCCCAAATAGGACGAAACGGGAATACCAGCATCGTCTTGATGCCCTTGGAAGTCCCGC | 0.8 | –
RA037 (nucleic acid, expressed or natural sequence) DNA: GCGCGTCCTGGATTCGCCGGAATACCAGCATCGTCTTGATGCCCTTGGAAGTCCGGGAAACGCGTACATCCAGCTGACGAGTCCCAAATAGGACGAAACGCGC | – | 2.2 fold
RA372 (nucleic acid, expressed or natural sequence) DNA: GCGCGTCCTGGATTCGCGGAAACGCGTACATCCAGCTGACGAGTCCCAAACGAGAATACCAGCATCGTCTTGATGCCCTTGGAAGTCTCGTAGGACGAAACGCGC | 0.8 | –
RA036 (nucleic acid, expressed or natural sequence) DNA: GCGCGTCCTGGATTCGCGGAAACGCGTACATCCAGCTGACGAGTCCCAAATAGGCGAGAATACCAGCATCGTCTTGATGCCCTTGGAAGTCTCGACGAAACGCGC | – | 2.2 fold
RA003 (nucleic acid, expressed or natural sequence) DNA: GCGCGTCCTGCGGAATACCAGCATCGTCTTGATGCCCTTGGAAGTCCGGATTCGCGGAAACGCGTACATCCAGCTGACGAGTCCCAAATAGGACGAAACGCGC | – | 5.5 fold
RA388 (nucleic acid, expressed or natural sequence) DNA: GCGCGTCCTGAGTGATACCAGCATCGTCTTGATGCCCTTGGCAGCACTGATTCGCGGAAACGCGTACATCCAGCTGACGAGTCCCAAATAGGACGAAACGCGC | 0.8 | –
RA384 (nucleic acid, expressed or natural sequence) DNA: GCGCGTCCTGGATTCGCGGAAACGCGTACATCCAGCTGACGAGTCGAGAATACCAGCATCGTCTTGATGCCCTTGGAAGTCTCCCAAATAGGACGAAACGCGC | 0.8 | –
RA382 (nucleic acid, expressed or natural sequence) DNA: GCGCGTCCTGGATTCGCGGAAACGCGTACATCCAGCTGACGCCGGAATACCAGCATCGTCTTGATGCCCTTGGAAGTCCGGAGTCCCAAATAGGACGAAACGCGC | 0.8 | –
RA368 (nucleic acid, expressed or natural sequence) DNA: GCGCGTCCTGGATTCGCGGAAACGCGTACATCCAGCTGACGAGTCCCGAGAATACCAGCATCGTCTTGATGCCCTTGGAAGTCTCGCAAATAGGACGAAACGCGC | 0.8 | –
